Our source for the lutein, % of total carotenoids in alpha- and beta-carotene accumulating E. coli with co-expressed hydroxylases (% of total carotenoids) values is US20150005534A1.

The test addresses CYP97C2 (rice) expressed in E. coli from pRQ-C2 (pCDFDuet-1-CYP97C2) (Rice (O. sativa)). Nature of the test: cell-based or functional assay.

With “HYD4 (maize) expressed in E. coli from pRQ-H4 (pCOLADuet-1-HYD4) (enzyme)”, the lutein, % of total carotenoids in alpha- and beta-carotene accumulating E. coli with co-expressed hydroxylases (% of total carotenoids) was determined as 1.58.

Regarding “CYP97A4 (rice) expressed in E. coli from pRT-A4 (pCOLADuet-1-CYP97A4) (enzyme)”, the lutein, % of total carotenoids in alpha- and beta-carotene accumulating E. coli with co-expressed hydroxylases (% of total carotenoids) was 29.
